Columns and labels:
IpsA (Cg2910) = biological target: T1, IpsA (Cg2910) (Corynebacterium glutamicum, UniProt Q8NMF0); assay: EMSA, dissociation of IpsA-DNA complex (ino1 promoter); type: binding; settings: effector; IpsA preincubated 20 min with effector, then DNA; 50 mM Tris-HCl pH 7.5, 40 mM KCl, 5 mM MgCl2, room temperature
T1 construct: C-terminal STREP-tag variant (pAN6-ipsA-STREP), expressed in E. coli BL21(DE3), StrepTactin and gel filtration; 79 kDa, dimer
T1 sequence (Q8NMF0 1-358): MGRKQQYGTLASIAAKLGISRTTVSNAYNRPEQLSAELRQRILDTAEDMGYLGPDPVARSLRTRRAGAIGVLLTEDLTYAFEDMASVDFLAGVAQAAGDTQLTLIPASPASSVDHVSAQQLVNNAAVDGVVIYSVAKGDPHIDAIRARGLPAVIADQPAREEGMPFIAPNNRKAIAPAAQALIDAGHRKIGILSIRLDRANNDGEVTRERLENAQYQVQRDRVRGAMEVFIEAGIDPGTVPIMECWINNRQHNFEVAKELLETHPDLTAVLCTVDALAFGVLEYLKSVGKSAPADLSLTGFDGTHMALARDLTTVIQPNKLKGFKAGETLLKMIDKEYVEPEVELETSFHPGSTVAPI

IpsA-Strep = biological target: T2, IpsA-Strep (Corynebacterium glutamicum ATCC 13032, UniProt Q8NMF0 1-358); assay: EMSA; EMSA: 50 mM Tris-HCl pH 7.5, 40 mM KCl, 5 mM MgCl2, room temperature, 10 uL, DNA 0.028-1 uM, 10-15% native PAGE; settings: protein: recombinant; tags: C-terminal STREP-tag; chain copies: 2; blunt
T2 sequence: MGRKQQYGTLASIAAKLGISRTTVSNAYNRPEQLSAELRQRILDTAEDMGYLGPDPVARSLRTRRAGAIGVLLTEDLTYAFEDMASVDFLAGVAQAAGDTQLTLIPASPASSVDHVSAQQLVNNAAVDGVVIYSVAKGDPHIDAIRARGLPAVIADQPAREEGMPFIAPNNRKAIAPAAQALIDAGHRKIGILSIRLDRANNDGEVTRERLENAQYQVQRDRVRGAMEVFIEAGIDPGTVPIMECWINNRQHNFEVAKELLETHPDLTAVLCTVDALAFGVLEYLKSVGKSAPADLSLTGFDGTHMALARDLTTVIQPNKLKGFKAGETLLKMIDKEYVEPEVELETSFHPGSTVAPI

| lowest concentration with observed effect (IpsA (Cg2910)) [mM] | Molecule | binding result (IpsA-Strep) |
| --- | --- | --- |
| 0.2 | O[C@H]1[C@H](O)[C@@H](O)[C@H](O)[C@@H](O)[C@H]1O [myo-I, myo-inositol] |  |
|  | cg3323 M5 (dsDNA) DNA 1: TTGAGTTGCTTGATCGATACTGTCTGATTT DNA 2: AAATCAGACAGTATCGATCAAGCAACTCAA | binds |
|  | cg3323 M4 (dsDNA) DNA 1: TTGAGTTGCTTGATCTCGCAGGTCTGATTT DNA 2: AAATCAGACCTGCGAGATCAAGCAACTCAA | no binding |
|  | cg3323 M3 (dsDNA) DNA 1: TTGAGTTGCTTGCGAGATCAGGTCTGATTT DNA 2: AAATCAGACCTGATCTCGCAAGCAACTCAA | no binding |
|  | cg3323 WT 30-mer (dsDNA) DNA 1: TTGAGTTGCTTGATCGATCAGGTCTGATTT DNA 2: AAATCAGACCTGATCGATCAAGCAACTCAA | binds |
